Test results published in article PMC11385924.

Experiments:
[1] = tested on: Km-AP23 (artificial (CPDiffusion design on KmAgo backbone)); experiment: fluorescence polarization; conditions: FP: 5 nM FAM-DNA, 0-1500 nM protein, 15 mM Tris-HCl pH 7.4, 200 mM NaCl, 5 mM MnCl2, 37 C, 1 h, EMSA: 1 uM FAM-guide, 2 uM protein
[2] = tested on: KmAgo (Km-WT) (Kurthia massiliensis); experiment: fluorescence polarization; conditions: FP: 5 nM FAM-DNA, 0-1500 nM protein, 15 mM Tris-HCl pH 7.4, 200 mM NaCl, 5 mM MnCl2, 37 C, 1 h, EMSA: 1 uM FAM-guide, 2 uM protein

Substance	Kd [1] [nM]	Kd [2] [nM]
gDNA (guide DNA)	17	65.9
tDNA (target DNA)	29.5	70
